Measurements published in patent US12018068B2, “Anti-O1 antibodies and uses thereof” (priority 2016, dated 2024).

Tests used:
[1] = system: LPS (O1); experiment: LPS neutralization assay, RAW264.7-lux NF-κB luciferase reporter; type: cell-based, murine
Procedure: LPS neutralization was assayed by utilizing a murine RAW264.7 macrophage cell line carrying a firefly luciferase reporter gene under the control of an NF-κB-responsive promoter (RAW264.7-lux). Serially diluted antibody stocks were mixed with LPS in a 1:1 ratio and incubated at 4° C. for 1 hr. Antibody/LPS mixture was then diluted 1:10 into assay plates containing pre-seeded RAW264.7-lux cells (5e3 cells/well), which were then placed at 37° C./5% CO2 for 2.5 hours. Following incubations, Steady Glo (Promega) was then added to each well and incubated for another 20 min protected from light. The relative light units (RLUs) were then measured using an Envision Multilabel plate reader (Perkin Elmer). The percentage of inhibition was determined by comparing RLU derived from assays with no antibodies to RLU obtained from anti-K. pneumoniae mAbs and a negative control mAb. Activation of TLR4 receptors by bacterial LPS leads to downstream activation of the NF-κB transcriptional regulator. A decrease in induction of NF-κB-responsive luciferase activity was used to quantify LPS neutralization activity by LPS mAbs.

[2] = system: K. pneumoniae capsule mutant strain 43816ΔcpsB Lux; experiment: bioluminescent opsonophagocytic killing (OPK) assay with HL-60 cells; type: cell-based, Klebsiella pneumoniae; conditions: for induction of OPK killing: FIG. 1C
Procedure: (§1) PBMC donors were ranked based on their binding titers as well as their SBA and OPK activity. OPK assays were performed as described with modifications (Wang, Q. et al. Target-Agnostic Identification of Functional Monoclonal Antibodies Against Klebsiella pneumoniae Multimeric MrkA Fimbrial Subunit J Infect Dis. 2016 Jun. 1; 213(11):1800-8). Briefly, log phase cultures of luminescent K. pneumoniae capsule mutant strain 43816ΔcpsB (43816ΔcpsB Lux) were diluted to ˜2×10^6 cells/ml. Bacteria, diluted baby rabbit serum providing complement (Cedarlane, pre-absorbed with Kp43816ΔcpsB, 1:10), dimethylformamide (DMF) differentiated HL-60 cells, and sera were mixed in 384-well plates and incubated at 37° C. for two hours with shaking (250 rpm). The relative light units (RLUs) were then measured using an Envision Multilabel plate reader (Perkin Elmer). The percentage of killing was determined by comparing RLU derived from assays with no antibodies to RLU obtained from human sera.
as §1, with “OPK” for “PBMC donors were ranked based on their binding titers as well as their SBA and OPK activity. OPK”, “al., J. Infect.” for “al. Target-Agnostic Identification of Functional Monoclonal Antibodies Against Klebsiella pneumoniae Multimeric MrkA Fimbrial Subunit J Infect”, “213:1800-8 (2016)).” for “2016 Jun. 1; 213(11):1800-8).”, “antibodies” for “sera”, “anti-K. pneumoniae mAbs and a negative control mAb.” for “human sera.”

[3] = system: Klebsiella pneumoniae of the LPS-O1 serotype; experiment: primary screening, binding to whole bacteria
Source text: KPA27 and KPE33 were isolated from the peripheral blood of two different immune donors: #487 and #262, respectively. […] KPA27 and KPE33 were isolated from immune donors as IgG2 antibodies.
KPB202 and KPJ4 were isolated from tonsillar B cells of two different donors: T6 (KPB202) and T8 (KPJ4). […] KPB202 and KPJ4 were isolated from donors as IgG1 and IgG2 antibodies, respectively.

[4] = system: K. pneumoniae strain Kp4211 lux; experiment: high throughput serum bactericidal assay (SBA), complement-dependent killing; type: cell-based, Klebsiella pneumoniae; conditions: for complement-dependent killing in SBA: FIG. 1B; for complement-dependent killing (SBA) in primary screening: strain Kp4211 (LPS-O1)
Procedure: Peripheral blood mononuclear cells (PBMC) and sera were separated from buffy coats from healthy blood donors (N=567). PMBC were stored in liquid nitrogen whereas the plasma was stored at 4° C. To identify Klebsiella pneumoniae immune donors, all the available sera were tested for binding to Kp43816 and Kp4211 (LPS-O1 serotype), as well as to the unencapsulated mutant strain Kp43816ΔcpsB and the double mutant Kp43816ΔcpsBΔwaaL. […] In addition, all available sera were tested for their bactericidal activity in the presence of complement using a high-throughput serum bactericidal assay (SBA assay). Overnight cultures of luminescent K. pneumoniae strain 4211 (lux) were diluted in Muller Hinton II media to make OD600 to be 0.003. Equal volume of sera, 4211 lux, and baby rabbit serum (Cedarlane) were mixed in 384 well plates and incubated at 37° C. for two hours with shaking (250 rpm). The relative light units (RLUs) were then measured using an Envision Multilabel plate reader (Perkin Elmer). The percentage of killing was determined by comparing RLU derived from assays with no antibodies to RLU obtained from human sera.
The susceptibility of the K. pneumoniae strain Kp4211 lux to serum and antibody dependent killing was measured by high throughput serum bactericidal assay (SBA). Overnight cultures of luminescent K. pneumoniae strain 4211 (lux) were diluted in Muller Hinton II media to make OD600 to be 0.003. Equal volume of antibodies, 4211 lux, and baby rabbit serum (Cedarlane) were mixed in 384 well plates and incubated at 37° C. for two hours with shaking (250 rpm). The relative light units (RLUs) were then measured using an Envision Multilabel plate reader (Perkin Elmer). The percentage of killing was determined by comparing RLU derived from assays with no antibodies to RLU obtained from anti-K. pneumoniae mAbs and a negative control mAb.

[5] = system: purified O1 LPS; experiment: ELISA binding to purified O1 LPS; parameters: species or system Klebsiella pneumoniae; conditions: FIG. 1A
Procedure: Binding to purified O1 LPS was assayed by standard ELISA method. Briefly, ELISA plates (Nunc MaxiSorp) were coated with purified O1 LPS in PBS, pH 7.2, overnight at 4 C, followed by blocking the plates with PBS supplemented with 1% BSA (PBS-B). The coated plates were incubated with series dilutions of monoclonal antibodies for 1 h at room temperature. The plates were then washed with PBS containing 0.1% Tween-20 (PBS-T) before HRP-conjugated anti-human secondary antibodies were added for 1 hour followed by TMB TMB (3,3′,5,5′-Tetrametheylbenzidine) substrates. The absorbance of 450 nm was measured by microplate reader (Molecular Devices) and the data were plotted with Prism software.

[6] = molecular target: O1 LPS; experiment: Octet binding affinity to O1 LPS; parameters: species or system Klebsiella pneumoniae; conditions: average, from on-rate and off-rate, read-out: affinity constant (KD) to O1 LPS
Source text: In order to reduce potential sequence liabilities for antibody development including potential immunogenicity due to anti-drug antibodies, an unpaired Cysteine in the light chain CDR3 of KPE33 was exchanged with Threonine (T), and somatic mutations in the frameworks 1, 2, and 4 of KPE33 were replaced with germ line residues (as summarized in FIG. 5). CDRs were maintained as wildtype, except for the C107T substitution described above. The optimized KPE33 was named KPE33v2016. […] This platform provides a powerful tool to measure the rate of biomolecular complex formation and complex stability in a more biologically meaningful setting. Briefly, Protein A coated sensors were coated with 2 μg/mL O1 LPS for 10 minutes before being dipped into solution containing 0.2 μg/mL anti-O1 LPS mAbs in Kinetics buffer (ForteBio, dilute 10× to 1× with PBS). Changes in the number of molecules bound to the biosensor caused a shift in the interference pattern that was recorded in real time. […] The affinity constant (KD) of KPE33 and KPE33v2016 to O1 LPS was calculated based on the on-rate and off-rate from Octet sensorgram.
KPE33v2016 was further optimized, thereby creating two new variants—KPE33 H32+L2016(1EQ) and KPE33 H33+L2016(1EQ). Both of these variants contain a Methionine to Isoleucine mutation adjacent to CDRH1, a Tryptophan to Tyrosine mutation in CDRH2, an Aspartate to Glutamate mutation adjacent to CDRH2, Asparagine to Glutamine and Methionine to Leucine mutations in FRH3 and an Aspartate to Asparagine mutation in CDRH3. In addition, KPE33 H32+L2016(1EQ) had four FRH3 residues changed to the germ-line residues, whereas KPE33 H33+L2016(1EQ) only has three of the same FRH3 residues changed to the germ-line. Both of these variants contain the same light chain as KPE33v2016, but with a single Glutamate to Glutamine mutation in residue 1.

| Molecule | LPS neutralization [1] | D Capsule OPK IC50 [2] [µg/mL] | induction of OPK killing [2] | binding to bacteria in primary screening [3] | SBA Kp4211lux IC50 [4] [µg/mL] | complement-dependent killing in SBA [4] | complement-dependent killing (SBA) in primary screening [4] | binding to purified O1 LPS [5] | Kd [6] [nM] | LPS Neut (O1) IC50 [1] [µg/mL] |
| --- | --- | --- | --- | --- | --- | --- | --- | --- | --- | --- |
| KPJ4: human anti-O1 antigen antibody from tonsillar B cells, VH SEQ ID NO:30, VL SEQ ID NO:31, IgG2 (antibody, V domains shown, IgG2 constant regions; KBJ4 VH Amino Acid Sequence; KPJ4 VL Amino Acid Sequence) VH: QVQLQQSGPGLVRPSQTLSLTCAISGDSVSSNTAAWNWIRQSPSRGLEWLGRTYYRSEWYNDYAVSVKSRITINPDTSKNQFSLQLNSVTPEDTAVYYCARISWNDLPAWGQGTLVTVSS VL: DIVMTQSPDSLAVSLGERATINCKSSQSILYSSHNKNYLAWYQQKPGQPPKVLIYWASTRESGVPDRFSGSGSGTDFTLTISNLQAEDVAVYYCQQYCNIPYTFGQGTKLEIK | did not | 0.011 | induced OPK killing | bind to Klebsiella pneumoniae of the LPS-O1 serotype | 0.11 | kill K. pneumoniae via complement-dependent killing | mediate complement-dependent killing | bound to purified O1 LPS | – | – |
| KPA27: human anti-O1 antigen antibody, VH SEQ ID NO:21, VL SEQ ID NO:22, isolated as IgG2 (antibody, V domains shown, KPA27 VH Amino Acid Sequence; KPA27 VL Amino Acid Sequence) VH: QVQLVQSGAEVKKPGASVKVSCKASENTFNDFYMHWVRQAPGQGLEWMGWIHPDGVVTNYAQKFQGRVTMTRDTSINTVYMELNGLISDDTAVYYCMRDGPGSEGSWFDYWGQGTLVTVSS VL: DIQMTQSPSTLSASVGDRVTITCRASQPVSNRLAWYQQKPGRAPTLLIYKASTLQSGVPLRFSGSGSGTEFTLTISSLQSDDFATYYCQQSQTFGQGTKVEIK | did not | 0.67 | induced OPK killing | bind to Klebsiella pneumoniae of the LPS-O1 serotype | 1.625 | kill K. pneumoniae via complement-dependent killing | mediate complement-dependent killing | bound to purified O1 LPS | – | – |
| KPE33V2016: sequence optimized KPE33, VH SEQ ID NO:12, VL SEQ ID NO:13 (antibody, V domains shown, KPE33V2016 VH Amino Acid Sequence; KPE33V2016 VL Amino Acid Sequence) VH: EVQLVESGGGLVQPGRSLRLSCAASGFIFDDYAMHWVRQAPGKGLEWVSGIAWKSGATNYADSVKGRFAISRDNSKKSMYLQMNSLGTEDTALYYCTRRRASGDDTFYYFDYWGQGTLVTVSS VL: EIVLTQSPATLSLSPGERATLSCRASQNVNTNLAWYQQKPGQAPRLLIYDASNRATGIPARFSGSGSGTDFTLTISSLEPEDFAVYYCQQTTNWRYTFGQGTKLEIK | – | – | – | – | – | – | – | – | 4.13 | – |
| KPB202: human anti-O1 antigen antibody from tonsillar B cells, VH SEQ ID NO:39, VL SEQ ID NO:40, IgG1 (antibody, V domains shown, KPB202 VH Amino Acid Sequence; KPB202 VL Amino Acid Sequence) VH: EVQLVESGGGLVQPGGSLSLSCAASGFTFSNFWVGWGRQAPGKGLEWVANINPDGSEKYYVDSVKGRVTISRDNAKNSLSLQMNSLRVEDAAVYYCARLGPFHPDCWGQGTLVTVSS VL: DVVMTQSPLSLPVTLGQPASISCRSSQSLVHSDGNTYLNWFQQRPGQSPRRLIYEVSNRDSGVPDRFSGSGSGTDFTLKISRVEAEDIGVYYCMQGTHWPWTFGQGTKVEIK | neutralized LPS | 0.0009 | induced OPK killing | bind to Klebsiella pneumoniae of the LPS-O1 serotype | 0.0006 | kill K. pneumoniae via complement-dependent killing | mediate complement-dependent killing | bound to purified O1 LPS | – | 0.038 |
